Columns and labels:
[1] = molecular target: T1, monkey ANGPTL8 expressed with C-terminal mouse IgG2a Fc tag (cynomolgus monkey); assay: BLI (Octet HTX), MfANGPTL8-mFc captured on AMC sensor
T1 construct: also called MfANGPTL8-mFc; mfANGPTL8-mFc
T1 chain: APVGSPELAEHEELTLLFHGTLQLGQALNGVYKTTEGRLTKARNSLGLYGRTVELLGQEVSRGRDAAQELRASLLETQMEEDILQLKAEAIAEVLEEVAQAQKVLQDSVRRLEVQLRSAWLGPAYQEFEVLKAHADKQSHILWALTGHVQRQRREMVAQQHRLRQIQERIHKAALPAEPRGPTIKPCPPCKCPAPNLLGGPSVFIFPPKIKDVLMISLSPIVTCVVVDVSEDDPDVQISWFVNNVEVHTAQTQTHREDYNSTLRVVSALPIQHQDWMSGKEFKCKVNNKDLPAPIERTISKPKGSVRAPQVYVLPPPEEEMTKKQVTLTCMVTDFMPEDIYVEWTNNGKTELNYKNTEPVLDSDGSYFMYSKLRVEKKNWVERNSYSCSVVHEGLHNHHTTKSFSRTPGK
Description: (§1) Binding of ANGPTL8 antibodies to human and monkey ANGPTL8 proteins was investigated using Bio-layer Interferometry with an Octet HTX biosensor platform (ForteBio, A Division of Pall Life Sciences). All experiments were performed at 25° C. in 10 mM HEPES pH 7.4, 150 mM NaCl, 0.05% v/v Surfactant Tween-20, and 1 mg/ml BSA with the reaction multiwell plate agitated at 1000 rpm. Approximately 1.6 nm of human ANGPTL8 produced with a C-terminal mouse IgG2a Fc tag (hANGPTL8-mFc; SEQ ID NO: 340) or cynomolgus monkey ANGPTL8 produced with a C-terminal mouse IgG2a Fc tag (MfANGPTL8-mFc; SEQ ID NO: 341) was captured onto anti-mFc (AMC) Octet biosensors by submerging the sensors into wells containing 10 μg/mL of each protein for 4 minutes. Under the same conditions a negative control protein with the same mFc tag (hLDLR-mFc) was also coupled to the AMC sensor. All four sensors, […] and one blank, were then submerged into wells containing 100 nM of different ANGPTL8 monoclonal antibodies or an isotype control for 4 minutes.

[2] = molecular target: T2, hLDLR-mFc (negative control protein with the same mFc tag) (human, UniProt P01130 22-788); assay: BLI (Octet HTX), hLDLR-mFc captured on AMC sensor
T2 construct: also called Irrelevant control; not shown: mFc tag ('the same mFc tag', mouse IgG2a Fc)
T2 sequence (P01130 22-788): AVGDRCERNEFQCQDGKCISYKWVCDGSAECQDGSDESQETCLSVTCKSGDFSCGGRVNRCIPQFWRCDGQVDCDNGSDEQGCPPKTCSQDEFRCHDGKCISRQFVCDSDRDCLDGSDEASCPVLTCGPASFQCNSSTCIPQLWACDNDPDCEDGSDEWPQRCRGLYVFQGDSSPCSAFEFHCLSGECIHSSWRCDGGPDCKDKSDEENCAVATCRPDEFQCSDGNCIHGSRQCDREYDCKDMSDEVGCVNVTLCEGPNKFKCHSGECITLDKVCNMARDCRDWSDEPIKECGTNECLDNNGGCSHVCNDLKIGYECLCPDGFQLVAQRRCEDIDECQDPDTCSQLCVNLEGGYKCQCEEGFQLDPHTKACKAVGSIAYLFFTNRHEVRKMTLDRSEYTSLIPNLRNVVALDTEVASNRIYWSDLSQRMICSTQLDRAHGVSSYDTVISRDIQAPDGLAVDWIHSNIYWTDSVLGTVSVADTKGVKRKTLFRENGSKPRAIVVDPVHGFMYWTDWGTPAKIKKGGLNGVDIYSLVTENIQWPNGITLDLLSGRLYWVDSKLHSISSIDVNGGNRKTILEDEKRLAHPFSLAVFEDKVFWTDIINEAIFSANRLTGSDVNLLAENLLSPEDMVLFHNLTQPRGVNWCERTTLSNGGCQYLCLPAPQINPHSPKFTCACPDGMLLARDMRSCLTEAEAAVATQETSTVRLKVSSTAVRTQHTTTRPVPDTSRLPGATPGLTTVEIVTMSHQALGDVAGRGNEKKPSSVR
Description: as §1

| Binder | binding result [1] | binding result [2] |
| --- | --- | --- |
| H4H15354P2 (antibody, human IgG4, V domains shown, human IgG4 Fc (H4H prefix)) VH: QVQLVESGGGVVQPGRSLRLSCTASGFTFNNYGIHWVRQAPGKGLEWVAVISYDGSNKFYAESVRGRFTISRDNSRNTLFLQMISLRGEDSAVYYCAKDRPYYDILTAHYPSDYYFYAMDVWGHGTTVTVSS VL: not shown | no binding (tested: background 0.03 nm at 100 nM mAb) | no binding (tested: 0.03 nm at 100 nM mAb) |
| H4H15347P (antibody, human IgG4, V domains shown, human IgG4 Fc (H4H prefix)) VH: EVQLVESGGGLVQPGGSLRLSCAASGFTFRNYAMNWARQAPGKGLEWVSGITGSGGATYYADSVKGRFTISRENSKNTLFLQMDTLRAEDTAVYYCAKDRRYFPTSGGPQWGQGTLVTVSS VL: DIVMTQSPLSLPVTPGEPASISCRSSRSLLHSSGYNYLDWYLQKPGQSPQLLLYLGSNRASGVPDRFSGSGSGTYFTLKISRVDAEDVGVYYCMQALQTPWTFGQGTKVEIK |  | no binding (tested: 0.03 nm at 100 nM mAb) |
| H4H15363P2 (antibody, human IgG4, V domains shown, human IgG4 Fc (H4H prefix)) VH: EVQLVESGGGLVQPGGSLRLSCAASGFTFSNYAMSWVRQVPGKGLEWVSTISGSGGSTYYADSVKGRFTISRDNSKNSLYLQMNSLRAEDTAVYYCAKLVRGVIGWFDPWGQGTLVTVSS VL: not shown |  | no binding (tested: 0.03 nm at 100 nM mAb) |
| H4H15335P (antibody, human IgG4, V domains shown, human IgG4 Fc (H4H prefix)) VH: QVQLVESGGGVVQPGRSLRLSCAASGFTFNNYGIHWVRQAPGKGLEWVAVISYDESNKYYADSVKGRFTISRDNSKNTLYLQMNSLRAEDTAVYYCAKDIRIAARRHYYYYGMDVWGQGTTVTVSS VL: DIQMTQSPSSVSASVGDRVTITCRASQGISRWLAWYQQKPGKAPKLLIYAASSLESGVPARFSGSGSGTDFTLTISSLQPEDFATYYCQQANSFPITFGPGTKVDIK |  | no binding (tested: 0.03 nm at 100 nM mAb) |
| H4H15362P2 (antibody, human IgG4, V domains shown, human IgG4 Fc (H4H prefix)) VH: QVQLVESGGGVVQPGRSLRLSCAASGFTFSSYGMHWVRQAPGKGLEWVAVIWYDGSNKYYADSVKGRFTISRDNSKNTLYLQMNSLRAEDTAVYYCARDWVRFLEWFPHFDYWGQGTLVTVSS VL: not shown |  | no binding (tested: 0.03 nm at 100 nM mAb) |
| H4H15361P2 (antibody, human IgG4, V domains shown, human IgG4 Fc (H4H prefix)) VH: EVQLVESGGGLVQPGRSLRLSCTASGFSFGDNAMGWVRQAPGKGLEWVSFIRRKASGGTTEYAASVKGRFTISRDDSKSIAYLQMNSLKTEDTGVYYCTRGGAVYGYWGQGTLVTVSS VL: not shown |  | no binding (tested: 0.03 nm at 100 nM mAb) |
| H4H15350P2 (antibody, human IgG4, V domains shown, human IgG4 Fc (H4H prefix)) VH: EVQLVESGGGLVQPGGSLRLSCAASGFTFSSFRMTWVRQAPGKGLEWVANIKQDGSEKYYVDSVKGRFTISRDNAKNSLYLQMNSLRAEDTAVYYCARGGGIAAYWGQGTLVTVSS VL: not shown |  | no binding (tested: 0.03 nm at 100 nM mAb) |
| H4H15330P (antibody, human IgG4, V domains shown, human IgG4 Fc (H4H prefix)) VH: QVQLVESGGGLVKPGGSLRLSCAASGFTFSDYYMSWIRQAPGKGLEWISHISGSGRTTHYADSMKGRFTISRDNAKNSLYLQMNSLRAEDTAVYYCVREGGFNWNYEGTFDIWGQGTMVTVSS VL: DIVMTQTPLSSPVTLGQPASISCRSSQSLLHSDQNTYLSWLHQRPGQPPRLLIYKISNRFSGVPDRFSGSGAGTDFTLKISRVEAEDVGIYYCMQGTQFPLTFGGGTKVEIK |  | no binding (tested: 0.03 nm at 100 nM mAb) |
| H4H15323P (antibody, human IgG4, V domains shown, human IgG4 Fc (H4H prefix)) VH: EVQLVESGGGLVQPGGSLRLSCAASGFTFSSYAMTWVRQAPGKGLEWVSAISGSGGSTYYTDSVKGRFTLSRDNSKNTLYLQMNSLRAEDTAVYYCAKSDYSNTIYWYYGMDVWGQGTTVTVSS VL: not shown |  | no binding (tested: 0.03 nm at 100 nM mAb) |
| H4H15367P2 (antibody, human IgG4, V domains shown, human IgG4 Fc (H4H prefix)) VH: QVQLVESGGGVVQPGRSVRLSCGASGFTFKYYGMHWVRQAPGKGLEWVAVIWYDGRNKFYADSVKGRFTISRDNSKNTVNLEMNNLRAEDTAIYYCARDGGTADGDYFDYWGQGTLVTVSS VL: not shown |  | no binding (tested: 0.03 nm at 100 nM mAb) |
| H4H15355P2 (antibody, human IgG4, V domains shown, human IgG4 Fc (H4H prefix)) VH: QVQLVESGGGVVQPGRSLRLSCAASGFTFTNYAMHWVRQAPGKGLEWVAVISYDGSHTYFADSVKGRFTMSRDNSKNTISLQMNSLRPEDTAVYFCAGGGATTWFYFYGLDVWGQGTTVTVSS VL: not shown |  | no binding (tested: 0.03 nm at 100 nM mAb) |
| H4H15369P2 (antibody, human IgG4, V domains shown, human IgG4 Fc (H4H prefix)) VH: EVQLVESGGGLVQPGGSLRLSCVGTGFTFSNYAMSWVRQAPGKGLEWVSGISGRSSGTFYADSVKGRFTISRDNSQNTLYLQMNSLGAEDTAVYYCAKVSRYNWDYVPFDFWGQGTLVTVSS VL: not shown |  | no binding (tested: 0.03 nm at 100 nM mAb) |
| H4H15321P (antibody, human IgG4, V domains shown, human IgG4 Fc (H4H prefix)) VH: EVQLVESGGGLVQPGGSLRLSCAASGFTFSSYAMSWVRQAPGKGLEWVSAITGSGGRTYYADSVKGRFTISRDNAKNTLYLQMNSLRAEDTAVYYCAKNFPFDYWGQGTLVTVSS VL: not shown |  | no binding (tested: 0.03 nm at 100 nM mAb) |
| H4H15345P (antibody, human IgG4, V domains shown, human IgG4 Fc (H4H prefix)) VH: EVQLVESGGGLVQPGGSLRLSCAASGFTFSTYAMSWVRQAPGKGLEWVSVISGSFISTYYADSVKGRFTISRDNSKNTLYLQMTSLRAEDTAVYYCAKNSPFDYWGQGTLVTVSS VL: not shown |  | no binding (tested: 0.03 nm at 100 nM mAb) |
| H4H15334P (antibody, human IgG4, V domains shown, human IgG4 Fc (H4H prefix)) VH: QVQLQESGPGLVKPSQTLSLTCTVSGGSINSGGYYWNWIRQHPGKGLEWIGYIYYSGSTYFNPSLKSRVTISIDTSKNQFSLKLSSVTAADTAVYYCAREGIYAFDYWGQGTLVTVSS VL: DIQMTQSPSSLSASVGDRVTITCRASQGIRNDLGWYQQKPGKAPKRLIYSASSLQSGVPSRFGGSGSGTEFTLTISSLQPEDFATYYCLQHNSYPWTFGQGTKVEIK | no binding (tested: background 0.03 nm at 100 nM mAb) | no binding (tested: 0.03 nm at 100 nM mAb) |
| H4H15314P2 (antibody, human IgG4, V domains shown, human IgG4 Fc (H4H prefix)) VH: QVQLVQSGAEVKKPGASVKVSCKASGYTFTSYDINWVRQATGQGLEWMGWMNPNGDNTGYAQKFQGRVTMTGDTSISTAYMELSSLRSEDTAVYYCAREGIWGFDPWGQGTLVTVSS VL: DIQMTQSPSSLSASVGDRVTITCRASQDIRNDLGWYQQKPGKAPKRLIYAASSLQSGVPSRFSGSGSGTEFTLTISSLQPEDFATFYCLQHNTFPRTFGQGTKVEIK | no binding (tested: background 0.03 nm at 100 nM mAb) | no binding (tested: 0.03 nm at 100 nM mAb) |
| H4H15346P (antibody, human IgG4, V domains shown, human IgG4 Fc (H4H prefix)) VH: EVQLVESGGGLVQPGGSLRLSCAASGFTFSNYAMSWVRQAPGKGLEWVSTISDTGGSTYYADSVKGRFALSRDNSRNTLYLQMNSLRAEDTAVYYCAKEGPPDYWGQGTLVTVSS VL: EIVLTQSPATLSLSPGERATLSCRTSQSVSIYLAWYQQKPGQAPRLLIYDASKRATGIPARFSGRGSGTDFTLTISSLEPEDFAVYYCQQRSNWPLTFGQGTRLEIK | no binding (tested: background 0.03 nm at 100 nM mAb) | no binding (tested: 0.03 nm at 100 nM mAb) |
| H4H15318P (antibody, human IgG4, V domains shown, human IgG4 Fc (H4H prefix)) VH: QVQLVESGGGVVQPGRSLRLSCTASGFTFGNFGIHWVRQAPGKGLEWVAVISYDGTDKFYADPVKGRFIISRDNSMNILYLQMNSLRAEDTAVYYCAKDGEMELRGYYYYYGMDVWGQGTTVTVSS VL: DIQMTQSPSSVSASVGDRVTITCRASQGINTWLAWYQQKPGTAPKLLIFAASSLESGVPSRFSGSGFGTDFTLTISSLQSEDLATYFCQQVHSPPYTFGQGTKLEIK |  | no binding (tested: 0.03 nm at 100 nM mAb) |
| H4H15357P2 (antibody, human IgG4, V domains shown, human IgG4 Fc (H4H prefix)) VH: EVQLVESGGGLVKPGGSLRLSCTASGFTFGNAWMSWVRQAPGKGLEWVGLIKGKTDGGTTNYAAPVKGRFTISRDDSKNTLYLHLNSLRTEDTALYYCTTDQVELRQYYYYGLDVWGQGTTVTVSS VL: not shown |  | no binding (tested: 0.03 nm at 100 nM mAb) |
